Laboratory results taken from US9040462 (RIGEL PHARMACEUTICALS, dated 2015).

Molecular target: Tet DNA binding domain only (UniProt P04483 1-207)
Experiment: mammalian two-hybrid luciferase reporter, Phoenix cells

Sequence of Tet DNA binding domain only (P04483 whole entry, the tested form may be a part): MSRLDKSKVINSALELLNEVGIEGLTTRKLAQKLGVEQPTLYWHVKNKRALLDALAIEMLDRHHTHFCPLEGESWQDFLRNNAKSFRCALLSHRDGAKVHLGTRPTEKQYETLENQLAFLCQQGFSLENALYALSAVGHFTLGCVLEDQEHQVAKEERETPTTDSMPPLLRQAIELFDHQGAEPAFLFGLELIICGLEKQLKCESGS

B1: VP16 activation domain only (other)
chain: APPTDVSLGDELHLDGEDVAMAHADALDDFDLDMLGDGDSPGPGFTPHDSAPYGALDMADFEFEQMFTDALGIDEYGG
notes: also called pVACT
Q: Does B1 bind?
A: no binding
